B1: DNA mismatch repair protein Mlh1 (Homo sapiens), P40692 (parent)
chain: MSFVAGVIRRLDETVVNRIAAGEVIQRPANAIKEMIENCLDAKSTSIQVIVKEGGLKLIQIQDNGTGIRKEDLDIVCERFTTSKLQSFEDLASISTYGFRGEALASISHVAHVTITTKTADGKCAYRASYSDGKLKAPPKPCAGNQGTQITVEDLFYNIATRRKALKNPSEEYGKILEVVGRYSVHNAGISFSVKKQGETVADVRTLPNASTVDNIRSIFGNAVSRELIEIGCEDKTLAFKMNGYISNANYSVKKCIFLLFINHRLVESTSLRKAIETVYAAYLPKNTHPFLYLSLEISPQNVDVNVHPTKHEVHFLHEESILERVQQHIESKLLGSNSSRMYFTQTLLPGLAGPSGEMVKSTTSLTSSSTSGSSDKVYAHQMVRTDSREQKLDAFLQPLSKPLSSQPQAIVTEDKTDISSGRARQQDEEMLELPAPAEVAAKNQSLEGDTTKGTSEMSEKRGPTSSNPRKRHREDSDVEMVEDDSRKEMTAACTPRRRIINLTSVLSLQEEINEQGHEVLREMLHNHSFVGCVNPQWALAQHQTKLYLLNTTKLSEELFYQILIYDFANFGVLRLSEPAPLFDLAMLALDSPESGWTEEDGPKEGLAEYIVEFLKKKAEMLADYFSLEIDEEGNLIGLPLLIDNYVPPLEGLPIFILRLATEVNWDEEKECFESLSKECAMFYSIRKQYISEESTLSGQQSEVPGSIPNSWKWTVEHIVYKALRSHILPPKHFTEDGNILQLANLPDLYKVFERC
partner: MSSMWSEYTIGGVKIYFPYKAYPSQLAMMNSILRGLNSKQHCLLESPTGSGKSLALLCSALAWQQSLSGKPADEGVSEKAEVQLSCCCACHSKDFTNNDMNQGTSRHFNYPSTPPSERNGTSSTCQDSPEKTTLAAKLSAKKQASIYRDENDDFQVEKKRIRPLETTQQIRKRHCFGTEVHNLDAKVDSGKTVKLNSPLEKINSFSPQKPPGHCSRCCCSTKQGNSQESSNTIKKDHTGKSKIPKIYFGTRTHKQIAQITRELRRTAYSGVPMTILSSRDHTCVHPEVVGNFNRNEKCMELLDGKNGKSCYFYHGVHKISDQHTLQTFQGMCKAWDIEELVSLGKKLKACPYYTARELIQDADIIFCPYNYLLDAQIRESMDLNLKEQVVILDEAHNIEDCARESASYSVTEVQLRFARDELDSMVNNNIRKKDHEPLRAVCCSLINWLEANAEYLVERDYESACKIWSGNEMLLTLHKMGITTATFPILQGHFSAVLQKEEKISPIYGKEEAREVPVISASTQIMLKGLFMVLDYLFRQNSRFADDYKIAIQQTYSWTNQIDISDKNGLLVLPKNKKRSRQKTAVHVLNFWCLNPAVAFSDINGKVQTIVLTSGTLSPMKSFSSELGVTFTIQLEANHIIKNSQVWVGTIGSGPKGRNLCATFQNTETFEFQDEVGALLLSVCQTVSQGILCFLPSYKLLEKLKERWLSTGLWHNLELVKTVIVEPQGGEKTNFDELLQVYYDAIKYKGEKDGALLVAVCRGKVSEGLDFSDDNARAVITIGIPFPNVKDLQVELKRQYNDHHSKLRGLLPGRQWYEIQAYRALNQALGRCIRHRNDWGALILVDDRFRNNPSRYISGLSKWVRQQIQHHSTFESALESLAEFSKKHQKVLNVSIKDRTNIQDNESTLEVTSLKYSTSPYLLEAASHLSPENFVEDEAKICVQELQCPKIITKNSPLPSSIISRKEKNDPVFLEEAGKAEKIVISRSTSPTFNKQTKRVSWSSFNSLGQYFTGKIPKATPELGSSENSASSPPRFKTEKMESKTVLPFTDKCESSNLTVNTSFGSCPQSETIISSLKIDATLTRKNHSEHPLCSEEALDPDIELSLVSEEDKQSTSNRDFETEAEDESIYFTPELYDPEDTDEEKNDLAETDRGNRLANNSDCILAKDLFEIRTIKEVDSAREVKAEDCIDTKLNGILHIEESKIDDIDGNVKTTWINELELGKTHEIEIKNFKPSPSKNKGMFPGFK
B2: Cyclin-dependent kinase 4 (Homo sapiens), P11802 (parent)
chain: MATSRYEPVAEIGVGAYGTVYKARDPHSGHFVALKSVRVPNGGGGGGGLPISTVREVALLRRLEAFEHPNVVRLMDVCATSRTDREIKVTLVFEHVDQDLRTYLDKAPPPGLPAETIKDLMRQFLRGLDFLHANCIVHRDLKPENILVTSGGTVKLADFGLARIYSYQMALTPVVVTLWYRAPEVLLQSTYATPVDMWSVGCIFAEMFRRKPLFCGNSEADQLGKIFDLIGLPPEDDWPRDVSLPRGAFPPRGPRPVQSVVPEMEESGAQLLLEMLTFNPHKRISAFRALQHSYLHKDEGNPE
B3: Mothers against decapentaplegic homolog 4 (Homo sapiens), Q13485 (parent)
chain: MDNMSITNTPTSNDACLSIVHSLMCHRQGGESETFAKRAIESLVKKLKEKKDELDSLITAITTNGAHPSKCVTIQRTLDGRLQVAGRKGFPHVIYARLWRWPDLHKNELKHVKYCQYAFDLKCDSVCVNPYHYERVVSPGIDLSGLTLQSNAPSSMMVKDEYVHDFEGQPSLSTEGHSIQTIQHPPSNRASTETYSTPALLAPSESNATSTANFPNIPVASTSQPASILGGSHSEGLLQIASGPQPGQQQNGFTGQPATYHHNSTTTWTGSRTAPYTPNLPHHQNGHLQHHPPMPPHPGHYWPVHNELAFQPPISNHPAPEYWCSIAYFEMDVQVGETFKVPSSCPIVTVDGYVDPSGGDRFCLGQLSNVHRTEAIERARLHIGKGVQLECKGEGDVWVRCLSDHAVFVQSYYLDREAGRAPGDAVHKIYPSAYIKVFDLRQCHRQMQQQAATAQAAAAAQAAAVAGNIPGPGSVGGIAPAISLSAAAGIGVDDLRRLCILRMSFVKGWGPDYPRQSIKETPCWIEIHLHRALQLLDEVLHTMPIADPQPLD
partner: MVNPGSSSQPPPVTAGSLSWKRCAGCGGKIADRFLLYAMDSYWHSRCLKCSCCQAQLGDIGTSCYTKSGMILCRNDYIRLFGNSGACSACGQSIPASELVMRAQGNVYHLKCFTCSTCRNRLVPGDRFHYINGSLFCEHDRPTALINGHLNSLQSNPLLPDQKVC
B4: Emerin (Homo sapiens), P50402 (parent)
chain: MDNYADLSDTELTTLLRRYNIPHGPVVGSTRRLYEKKIFEYETQRRRLSPPSSSAASSYSFSDLNSTRGDADMYDLPKKEDALLYQSKGYNDDYYEESYFTTRTYGEPESAGPSRAVRQSVTSFPDADAFHHQVHDDDLLSSSEEECKDRERPMYGRDSAYQSITHYRPVSASRSSLDLSYYPTSSSTSFMSSSSSSSSWLTRRAIRPENRAPGAGLGQDRQVPLWGQLLLFLVFVIVLFFIYHFMQAEEGNPF
partner: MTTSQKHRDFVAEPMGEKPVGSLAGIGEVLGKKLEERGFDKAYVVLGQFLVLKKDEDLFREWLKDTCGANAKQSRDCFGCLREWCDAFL

Variants of: B1
Details: with fancj_human BRIP1, Q9BX63

Variant	effect of a mutation on the interaction
I107R	with no effect

Variants of: B2
Details: with ccnd1_human CCND1, P24385
Sequence of ccnd1_human CCND1, P24385 (P24385 whole entry): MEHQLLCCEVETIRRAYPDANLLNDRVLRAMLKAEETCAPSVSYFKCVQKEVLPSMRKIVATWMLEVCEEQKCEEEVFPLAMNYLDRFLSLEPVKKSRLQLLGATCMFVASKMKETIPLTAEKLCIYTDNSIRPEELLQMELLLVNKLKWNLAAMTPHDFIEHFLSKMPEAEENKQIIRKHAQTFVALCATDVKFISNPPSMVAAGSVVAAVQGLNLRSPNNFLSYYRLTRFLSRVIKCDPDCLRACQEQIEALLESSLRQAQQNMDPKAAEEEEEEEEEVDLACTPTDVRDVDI

Variant	effect of a mutation on the interaction
MATSRYEPVAEIGVGAYGTVYKARDPHSGHFVALKSVRVPNGGGGGGGLPINTVREVALLRRLEAFEHPNVVRLMDVCATSRTDREIKVTLVFEHVDQDLRTYLDKAPPPGLPAETIKDLMRQFLRGLDFLHANCIVHRDLKPENILVTSGGTVKLADFGLARIYSYQMALTPVVVTLWYRAPEVLLQSTYATPVDMWSVGCIFAEMFRRKPLFCGNSEADQLGKIFDLIGLPPEDDWPRDVSLPRGAFPPRGPRPVQSVVPEMEESGAQLLLEMLTFNPHKRISAFRALQHSYLHKDEGNPE [S52N]	with no effect
MATSRYEPVAEIGVGAYGTVYKAHDPHSGHFVALKSVRVPNGGGGGGGLPISTVREVALLRRLEAFEHPNVVRLMDVCATSRTDREIKVTLVFEHVDQDLRTYLDKAPPPGLPAETIKDLMRQFLRGLDFLHANCIVHRDLKPENILVTSGGTVKLADFGLARIYSYQMALTPVVVTLWYRAPEVLLQSTYATPVDMWSVGCIFAEMFRRKPLFCGNSEADQLGKIFDLIGLPPEDDWPRDVSLPRGAFPPRGPRPVQSVVPEMEESGAQLLLEMLTFNPHKRISAFRALQHSYLHKDEGNPE [R24H]	with no effect
MATSRYEPVAEIGVGAYGTVYKARDPHSGHFVALKSVRVPSGGGGGGGLPISTVREVALLRRLEAFEHPNVVRLMDVCATSRTDREIKVTLVFEHVDQDLRTYLDKAPPPGLPAETIKDLMRQFLRGLDFLHANCIVHRDLKPENILVTSGGTVKLADFGLARIYSYQMALTPVVVTLWYRAPEVLLQSTYATPVDMWSVGCIFAEMFRRKPLFCGNSEADQLGKIFDLIGLPPEDDWPRDVSLPRGAFPPRGPRPVQSVVPEMEESGAQLLLEMLTFNPHKRISAFRALQHSYLHKDEGNPE [N41S]	with no effect

Variants of: B3
Details: with lmo4_human LMO4, P61968

Variant	effect of a mutation on the interaction
N13S	with no effect
Y353S	with no effect
R361C	with no effect

Variants of: B4
Details: with baf_human BANF1, O75531

Variant	effect of a mutation on the interaction
MDNYADLSDTELTTLLRRYNIPHGPVVGSTRRLYEKKIFEYETQRRRLSPPSSSAASSYSFSDLNSTRGDAVMYDLPKKEDALLYQSKGYNDDYYEESYFTTRTYGEPESAGPSRAVRQSVTSFPDADAFHHQVHDDDLLSSSEEECKDRERPMYGRDSAYQSITHYRPVSASRSSLDLSYYPTSSSTSFMSSSSSSSSWLTRRAIRPENRAPGAGLGQDRQVPLWGQLLLFLVFVIVLFFIYHFMQAEEGNPF [D72V]	with no effect
MDNYADLSDTELTTLLRRYNIPHGPVVGSTRRLYEKKIFEYETQRRRLSPPSSSAASSYSFSDLNSTRGDADMYDLPKKEDALLYQSKGYNDDYYEESYFTTRTYGEPESAGPSRAVRQSVTSFPDADAFHHQVHDDDLLSSSEEECKDRERPMYGRDSAYQSITHYRPVSASRSSLDLSYYTTSSSTSFMSSSSSSSSWLTRRAIRPENRAPGAGLGQDRQVPLWGQLLLFLVFVIVLFFIYHFMQAEEGNPF [P183T]	with no effect

Source: IntAct's records for PubMed 25502805
